Laboratory results reported in paper PMC2905227 (Journal of the American Chemical Society, 2010).
Residue numbers refer to the chain shown, from its start.

Experiments:
Assay in all cases: competitive inhibition of enzyme activity
[1] = molecular target: T1, wild-type E. coli ribonucleotide reductase α2 subunit (E. coli, UniProt P00452 1-761)
T1 sequence (looked up): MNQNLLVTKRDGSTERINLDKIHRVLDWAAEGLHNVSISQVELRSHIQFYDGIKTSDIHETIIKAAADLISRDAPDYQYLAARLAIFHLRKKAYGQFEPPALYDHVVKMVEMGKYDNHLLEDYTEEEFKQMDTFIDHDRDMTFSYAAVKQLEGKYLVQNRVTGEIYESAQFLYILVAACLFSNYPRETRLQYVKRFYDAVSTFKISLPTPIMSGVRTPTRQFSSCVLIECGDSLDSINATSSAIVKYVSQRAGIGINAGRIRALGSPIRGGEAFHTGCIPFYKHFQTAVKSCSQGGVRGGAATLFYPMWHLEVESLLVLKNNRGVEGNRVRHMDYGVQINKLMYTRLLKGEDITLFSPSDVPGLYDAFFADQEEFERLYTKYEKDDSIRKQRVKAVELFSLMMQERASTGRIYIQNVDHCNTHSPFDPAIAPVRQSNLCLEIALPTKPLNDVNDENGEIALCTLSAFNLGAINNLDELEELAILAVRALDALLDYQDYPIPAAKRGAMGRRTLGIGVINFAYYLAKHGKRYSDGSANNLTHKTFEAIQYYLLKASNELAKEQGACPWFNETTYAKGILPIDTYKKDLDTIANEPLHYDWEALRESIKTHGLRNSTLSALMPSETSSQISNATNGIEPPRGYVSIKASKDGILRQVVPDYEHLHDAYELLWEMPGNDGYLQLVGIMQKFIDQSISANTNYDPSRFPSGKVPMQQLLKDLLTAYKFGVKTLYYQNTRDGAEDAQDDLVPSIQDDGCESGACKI

[NO2Y730]-α2(C439S) = molecular target: T2, [NO2Y730]-α2(C439S) (E. coli, UniProt P00452 1-761, C439S, 3-nitrotyrosine (NO2Y) in place of Y730)
T2 sequence (looked up): T1 sequence (looked up) with C439S

[NO2Y730]-α2(Y731F) = molecular target: T3, [NO2Y730]-α2(Y731F) (E. coli, UniProt P00452 1-761, Y731F, 3-nitrotyrosine (NO2Y) in place of Y730)
T3 sequence (looked up): T1 sequence (looked up) with Y731F

B1: wild-type E. coli ribonucleotide reductase β2 subunit (enzyme, UniProt P69924 1-376, looked up)
chain: MAYTTFSQTKNDQLKEPMFFGQPVNVARYDQQKYDIFEKLIEKQLSFFWRPEEVDVSRDRIDYQALPEHEKHIFISNLKYQTLLDSIQGRSPNVALLPLISIPELETWVETWAFSETIHSRSYTHIIRNIVNDPSVVFDDIVTNEQIQKRAEGISSYYDELIEMTSYWHLLGEGTHTVNGKTVTVSLRELKKKLYLCLMSVNALEAIRFYVSFACSFAFAERELMEGNAKIIRLIARDEALHLTGTQHMLNLLRSGADDPEMAEIAEECKQECYDLFVQAAQQEKDWADYLFRDGSMIGLNKDILCQYVEYITNIRMQAVGLDLPFQTRSNPIPWINTWLVSDNVQVAPQEVEVSSYLVGQIDSEVDTDDLSNFQL
modifications: tyrosyl radical at Y122 (1-1.2 radicals per β2), diferric cluster
[1]
  binding result: binds
[NO2Y730]-α2(C439S)
  Kd: 1280 ± 70 nM
[NO2Y730]-α2(Y731F)
  Kd: 1450 ± 140 nM
